Source: the supplement of paper PMC7877785
± gives the uncertainty stated by the source.

Assay: self-splicing fitness, log relative to wild type (ln ratio); higher = more splicing; Tetrahymena group I intron in knt gene, E. coli kanamycin selection, DiMSum; sequences stand for … in CUCUCU…GGAGGGAAAAGUUAUCAGGCAUGCACCUGGUAGCUAGUCUUUAAACCAAUAGAUUGCAUCGGUUUAAAAGGCAAGACCGUCAAAUUGCGGGAAAGGGGUCAACAGCCGUUCAGUACCAAGUCUCAGGGGAAACUUUGAGAUGGCCUUGCAAAGGGUAUGGUAAUAAGCUGACGGACAUGGUCCUAACCACGCAGCCAAGUCCUAAGUCAACAGAUCUUCUGUUGAUAUGGAUGCAGUUCACAGACUAAAUGUCGGUCGGGGAAGAUGUAUUCUUCUCAUAAGAUAUAGUCGGACCUCUCCUUAAUGGGAGCUAGCGGAUGAAGUGAUGCAACACUGGAGCCGCUGGGAACUAAUUUGUAUGCGAAAGUAUAUUGAUUAGUUUUGGAGUACUCGUGGUCG
Procedure, shortened: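 A randomised library covering all eight P1ex-region intron nucleotides was built with the intron in the knt kanamycin-resistance gene on pET-22b(+) and held in E. coli BL21(DE3). Cells were grown overnight at 37°C or 30°C on LB agar, with or without 25 μg/mL kanamycin, plus 100 μg/mL carbenicillin, 50 μM IPTG and 0.2% rhamnose, and pooled colonies were amplicon-sequenced on an Illumina HiSeq 2500. DiMSum fitness is the error-weighted combination of wild-type-normalised replicate fold changes, kanamycin versus none.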

Sequence | self-splicing fitness (ln) (30 °C) | self-splicing fitness (ln) (37 °C)
AGACAGCAAUAUUACGAACA | -1.33 ± 0.1 | -0.502 ± 0.099
CGACAGCAAUAUUACGGUAC | -4.52 ± 0.36 | -2.09 ± 0.2
GCGGAGCAAUAUUACGUCAG | -3.19 ± 0.31 | -2.38 ± 0.35
UACAAGCAAUAUUACGCUUA | -2.33 ± 0.11 | -1.18 ± 0.08
CUGCAGCAAUAUUACGCUGC | -2.88 ± 0.29 | –
ACCUAGCAAUAUUACGACUG | -2.84 ± 0.15 | -1.46 ± 0.18
CGCAAGCAAUAUUACGUAUA | -3.79 ± 0.44 | -3.01 ± 0.2
GCCCAGCAAUAUUACGGCCC | -1.09 ± 0.18 | -0.738 ± 0.32
AAGCAGCAAUAUUACGCCAC | -2.93 ± 0.22 | -2.72 ± 0.29
CACUAGCAAUAUUACGCACA | -0.953 ± 0.094 | -0.695 ± 0.08
GUAUAGCAAUAUUACGCGGA | -3.08 ± 0.33 | -0.662 ± 0.2
GUCCAGCAAUAUUACGCAAC | -0.987 ± 0.099 | -0.844 ± 0.11
AUUAAGCAAUAUUACGCUUG | -1.87 ± 0.11 | -0.856 ± 0.14
UCCAAGCAAUAUUACGAUCC | – | -0.628 ± 0.48
GGCUAGCAAUAUUACGGUAG | -2.31 ± 0.27 | -0.259 ± 0.23
AUGGAGCAAUAUUACGAAGA | – | -1.17 ± 0.33
CAGGAGCAAUAUUACGUGUA | -4.13 ± 0.27 | -2.83 ± 0.25
UACUAGCAAUAUUACGGCUA | -1.58 ± 0.12 | -0.671 ± 0.099
GCGGAGCAAUAUUACGUCCU | -1.31 ± 0.25 | -0.651 ± 0.41
UGACAGCAAUAUUACGCCCC | -0.414 ± 0.17 | -0.391 ± 0.26
CUUCAGCAAUAUUACGGGCC | -1.78 ± 0.22 | –
UGAUAGCAAUAUUACGCGAU | -2.6 ± 0.29 | -2.65 ± 0.26
UAUGAGCAAUAUUACGGGAU | -3.06 ± 0.21 | -2.35 ± 0.29
GUAUAGCAAUAUUACGAAAG | -3.15 ± 0.43 | -2.06 ± 0.35
CCGAAGCAAUAUUACGGGGA | -3.16 ± 0.19 | -2.96 ± 0.19

Sequence | self-splicing fitness (ln) (30 °C) | self-splicing fitness (ln) (37 °C)
AUCCAGCAAUAUUACGAUUG | -4.83 ± 0.34 | -3.03 ± 0.24
ACCCAGCAAUAUUACGGGCC | -3.49 ± 0.18 | -1.45 ± 0.14
GUCUAGCAAUAUUACGAAAG | – | -2.42 ± 0.39
CCUUAGCAAUAUUACGGCCG | -1.85 ± 0.23 | -0.27 ± 0.35
CCGGAGCAAUAUUACGUGCU | -2.99 ± 0.17 | -2.85 ± 0.24
GGGUAGCAAUAUUACGUAUA | -1.41 ± 0.14 | -0.205 ± 0.15
AAAGAGCAAUAUUACGAACA | -2.07 ± 0.35 | -2.02 ± 0.4
GCAGAGCAAUAUUACGCUGC | -3.42 ± 0.48 | -1.76 ± 0.33
GAGUAGCAAUAUUACGCGGA | -2.61 ± 0.17 | -2.06 ± 0.17
GGGCAGCAAUAUUACGCAUU | -0.0216 ± 0.078 | -0.129 ± 0.11
CUUCAGCAAUAUUACGAGUC | – | -2.56 ± 0.18
UGUCAGCAAUAUUACGGAGA | -1.58 ± 0.1 | -0.867 ± 0.091
CGCUAGCAAUAUUACGGUCU | -1.02 ± 0.1 | -0.659 ± 0.12
UGACAGCAAUAUUACGCGCU | -0.554 ± 0.086 | -0.657 ± 0.099
UCCUAGCAAUAUUACGAUCA | -2.01 ± 0.1 | -1.36 ± 0.096
CUUUAGCAAUAUUACGUAAC | – | -1.64 ± 0.37
AGCCAGCAAUAUUACGACAU | -1.512 ± 0.012 | -0.664 ± 0.032
CCGAAGCAAUAUUACGGCGC | -4.16 ± 0.36 | -2.63 ± 0.49
GUCAAGCAAUAUUACGCGUU | -2.07 ± 0.076 | -0.761 ± 0.097
UGGCAGCAAUAUUACGUUUU | -2.85 ± 0.14 | -0.527 ± 0.13
UCGUAGCAAUAUUACGGUAA | -2.67 ± 0.35 | 0.253 ± 0.19
CCCCAGCAAUAUUACGGACU | -3.61 ± 0.14 | -3.13 ± 0.19
GCCUAGCAAUAUUACGAGUU | -1.58 ± 0.061 | -0.309 ± 0.078
UACGAGCAAUAUUACGUAUA | -2.7 ± 0.2 | -0.839 ± 0.14
AGUCAGCAAUAUUACGUUAA | -3.47 ± 0.18 | -1.77 ± 0.12

Sequence | self-splicing fitness (ln) (30 °C) | self-splicing fitness (ln) (37 °C)
ACACAGCAAUAUUACGUAGC | -3.75 ± 0.14 | -2.11 ± 0.12
AUCCAGCAAUAUUACGGAAU | -2.94 ± 0.13 | -1.91 ± 0.17
UGACAGCAAUAUUACGAUUA | -0.338 ± 0.059 | 0.419 ± 0.066
UCAUAGCAAUAUUACGAGGA | -3.42 ± 0.34 | -0.473 ± 0.21
AGUGAGCAAUAUUACGCUGC | -2.29 ± 0.46 | -2.44 ± 0.44
GACGAGCAAUAUUACGUGUU | -3.18 ± 0.16 | -3.09 ± 0.19
AUUUAGCAAUAUUACGUGUG | -2.36 ± 0.11 | -1.44 ± 0.11
CCUCAGCAAUAUUACGCCCC | – | -1.39 ± 0.35
GACAAGCAAUAUUACGUUCA | -1.21 ± 0.074 | -0.263 ± 0.072
AUGCAGCAAUAUUACGCACG | -1.46 ± 0.091 | -0.13 ± 0.1
AAAAAGCAAUAUUACGUUUU | -2.42 ± 0.13 | -2.39 ± 0.14
CUACAGCAAUAUUACGGUGG | -4.48 ± 0.21 | -2.71 ± 0.15
GAGAAGCAAUAUUACGGGCG | -1.52 ± 0.14 | -0.609 ± 0.13
UGCGAGCAAUAUUACGAGUG | -2.85 ± 0.17 | -2.32 ± 0.28
GCUCAGCAAUAUUACGGCCC | -1.13 ± 0.078 | -0.029 ± 0.1
CAGUAGCAAUAUUACGCGCA | -1.08 ± 0.074 | -0.617 ± 0.085
GUGCAGCAAUAUUACGCCUC | -0.807 ± 0.17 | 0.123 ± 0.21
CAUAAGCAAUAUUACGUCAG | -1.26 ± 0.13 | 0.389 ± 0.15
AGACAGCAAUAUUACGAUAG | -3.16 ± 0.2 | -1.56 ± 0.26
GUUCAGCAAUAUUACGUUAC | -1.98 ± 0.13 | -1 ± 0.094
CAUUAGCAAUAUUACGCCGC | -1.43 ± 0.29 | –
AGGCAGCAAUAUUACGUCUG | -2.66 ± 0.15 | -1.51 ± 0.15
AAGAAGCAAUAUUACGGGUG | -1.65 ± 0.072 | -1.12 ± 0.086
UGCCAGCAAUAUUACGGUCC | -0.84 ± 0.2 | 0.136 ± 0.2
CCGUAGCAAUAUUACGCUUU | -3.52 ± 0.43 | -2.23 ± 0.49

Sequence | self-splicing fitness (ln) (30 °C) | self-splicing fitness (ln) (37 °C)
CACGAGCAAUAUUACGCUAC | – | -2.5 ± 0.37
GCAUAGCAAUAUUACGUAUU | -3.09 ± 0.16 | -2.04 ± 0.17
UCUGAGCAAUAUUACGGAAC | -4.04 ± 0.39 | -3.05 ± 0.28
AAAGAGCAAUAUUACGACAG | -3.56 ± 0.3 | -2.86 ± 0.36
UCCAAGCAAUAUUACGCCCA | -0.733 ± 0.14 | -1.07 ± 0.21
UCAGAGCAAUAUUACGUCCU | -3.91 ± 0.42 | –
GACAAGCAAUAUUACGCGCA | -0.282 ± 0.099 | -0.0559 ± 0.1
UUUGAGCAAUAUUACGCUAC | – | -1.45 ± 0.3
CCAUAGCAAUAUUACGCAUG | -3.37 ± 0.19 | -0.732 ± 0.13
UAAGAGCAAUAUUACGGCCA | -1.81 ± 0.3 | -1.48 ± 0.37
CGAUAGCAAUAUUACGCACG | -2.6 ± 0.36 | -1.91 ± 0.37
UAGCAGCAAUAUUACGCAAA | -1.89 ± 0.18 | -1.76 ± 0.17
GAUAAGCAAUAUUACGCAGU | -2.94 ± 0.2 | -1.65 ± 0.24
UCAUAGCAAUAUUACGAUUA | -0.984 ± 0.17 | -0.81 ± 0.25
UAAGAGCAAUAUUACGCUUC | -3.71 ± 0.25 | -2.46 ± 0.25
GUCGAGCAAUAUUACGGGUA | -2.65 ± 0.27 | -2.91 ± 0.22
UGUAAGCAAUAUUACGAGGA | -2.17 ± 0.36 | -2.61 ± 0.34
GCAUAGCAAUAUUACGCCGU | -3.07 ± 0.15 | -1.83 ± 0.14
CCUGAGCAAUAUUACGAUUC | -3.56 ± 0.27 | –
UCCCAGCAAUAUUACGCAAA | -2.54 ± 0.18 | -0.641 ± 0.14
UAGUAGCAAUAUUACGCUAC | -2.41 ± 0.42 | –
GCUAAGCAAUAUUACGUUUU | -2 ± 0.093 | -0.945 ± 0.1
CUGAAGCAAUAUUACGACCA | -4.88 ± 0.41 | -1.22 ± 0.18
UGUGAGCAAUAUUACGUCGG | -2.11 ± 0.2 | -1.35 ± 0.29
